The results in this text go back to the Immune Epitope Database (IEDB).

The target in experiment [1] is HLA-B*27:05. Nature of the experiment: IEDB peptide-MHC binding, cellular MHC/competitive/radioactivity; ≥ and ≤ were set here for values at or beyond the usual limits of such assays. The note with it: source organism: Hepacivirus hominis.
Experiment [2] concerns the target HLA-A*80:01. Nature of the experiment: IEDB peptide-MHC binding, purified MHC/direct/fluorescence; filed as Kd, often an IC50 or EC50 that approximates it; ≥ and ≤ were set here for values at or beyond the usual limits of such assays.
The target of experiment [3] is HLA-A*01:01. Nature of the experiment: IEDB peptide-MHC binding, purified MHC/competitive/fluorescence; filed as Kd, often an IC50 or EC50 that approximates it; ≥ and ≤ were set here for values at or beyond the usual limits of such assays. The note with it: source organism: Rattus norvegicus.
Experiment [4] concerns the target HLA-A*29:02. The description is as above. The note with it: source organism: Rattus norvegicus.
For experiment [5], the target named is HLA-A*02:01. Nature of the experiment: IEDB peptide-MHC binding, purified MHC/competitive/radioactivity; ≥ and ≤ were set here for values at or beyond the usual limits of such assays. As to conditions: source organism: Trypanosoma cruzi.
Experiment [6] addresses HLA-A*02:02. Nature of the experiment: IEDB peptide-MHC binding, purified MHC/competitive/radioactivity; filed as Kd, often an IC50 or EC50 that approximates it; ≥ and ≤ were set here for values at or beyond the usual limits of such assays. The note with it: source organism: Trypanosoma cruzi.
Experiment [7] addresses HLA-A*02:03. Described as above. The note with it: source organism: Trypanosoma cruzi.
The target of experiment [8] is HLA-A*02:06. The description is as above. The note with it: source organism: Trypanosoma cruzi.
Experiment [9] deals with HLA-A*68:02. The description is as above. The note with it: source organism: Trypanosoma cruzi.
Experiment [10] concerns the target HLA-C*15:02. Nature of the experiment: IEDB peptide-MHC binding, purified MHC/direct/fluorescence; filed as Kd, often an IC50 or EC50 that approximates it; ≥ and ≤ were set here for values at or beyond the usual limits of such assays. As to conditions: source organism: Yersinia pestis Nepal516.
The target of experiment [11] is HLA-A*03:19. Nature of the experiment: IEDB peptide-MHC binding, purified MHC/competitive/fluorescence; filed as Kd, often an IC50 or EC50 that approximates it; ≥ and ≤ were set here for values at or beyond the usual limits of such assays. As to conditions: source organism: Yersinia pestis Nepal516.
In experiment [12] the target is HLA-A*24:02. The experiment is described as above.
Experiment [13] has as its target HLA-A*32:07. The description is as above. As to conditions: source organism: Yersinia pestis Nepal516.
Experiment [14] deals with HLA-A*32:15. The description is as above. As to conditions: source organism: Yersinia pestis Nepal516.
Experiment [15] addresses HLA-A*68:23. The experiment is described as above. The note with it: source organism: Yersinia pestis Nepal516.
Experiment [16] deals with HLA-B*15:42. Described as above.
Experiment [17] deals with HLA-B*45:06. Described as above.
In experiment [18] the target is HLA-C*04:01. Described as above. As to conditions: source organism: Yersinia pestis Nepal516.
Experiment [19] has as its target HLA-C*06:02. Described as above. The note with it: source organism: Yersinia pestis Nepal516.
Experiment [20] concerns the target HLA-C*14:02. The experiment is described as above. The note with it: source organism: Yersinia pestis Nepal516.
Experiment [21] concerns the target HLA-C*07:02. Nature of the experiment: IEDB peptide-MHC binding, purified MHC/direct/fluorescence; filed as Kd, often an IC50 or EC50 that approximates it; ≥ and ≤ were set here for values at or beyond the usual limits of such assays.
For experiment [22], the target named is HLA-B*07:02. Nature of the experiment: IEDB peptide-MHC binding, purified MHC/competitive/fluorescence; filed as Kd, often an IC50 or EC50 that approximates it; ≥ and ≤ were set here for values at or beyond the usual limits of such assays. As to conditions: source organism: Yersinia pestis Nepal516.
Experiment [23] concerns the target HLA-B*15:01. The description is as above. The note with it: source organism: Yersinia pestis Nepal516.
Experiment [24] addresses HLA-B*15:02. The description is as above. As to conditions: source organism: Yersinia pestis Nepal516.
The target of experiment [25] is HLA-B*35:01. The experiment is described as above. The note with it: source organism: Yersinia pestis Nepal516.
Experiment [26] has as its target HLA-B*46:01. The description is as above. The note with it: source organism: Yersinia pestis Nepal516.
In experiment [27] the target is HLA-B*08:01. The description is as above. As to conditions: source organism: Yersinia pestis Nepal516.
Experiment [28] deals with HLA-B*51:01. Described as above. The note with it: source organism: Yersinia pestis Nepal516.
The target of experiment [29] is HLA-B*48:01. The description is as above. The note with it: source organism: Escherichia coli B171.
Experiment [30] has as its target HLA-B*27:20. The experiment is described as above.
Experiment [31] concerns the target HLA-B*83:01. The experiment is described as above.
In experiment [32] the target is HLA-B*73:01. Described as above. The note with it: source organism: Salmonella enterica subsp. enterica serovar Typhimurium str. LT2.
For experiment [33], the target named is HLA-A*01:01. Nature of the experiment: IEDB peptide-MHC binding, purified MHC/direct/fluorescence; filed as Kd, often an IC50 or EC50 that approximates it; ≥ and ≤ were set here for values at or beyond the usual limits of such assays. The note with it: source organism: Mammarenavirus lassaense.
In experiment [34] the target is HLA-C*03:03. The experiment is described as above. As to conditions: source organism: Yersinia pestis Nepal516.
The target of experiment [35] is HLA-C*12:03. The experiment is described as above. As to conditions: source organism: Yersinia pestis Nepal516.
For experiment [36], the target named is HLA-B*39:01. Nature of the experiment: IEDB peptide-MHC binding, purified MHC/competitive/fluorescence; filed as Kd, often an IC50 or EC50 that approximates it; ≥ and ≤ were set here for values at or beyond the usual limits of such assays. The note with it: source organism: Yersinia pestis Nepal516.
Experiment [37] deals with HLA-C*04:01. Nature of the experiment: IEDB peptide-MHC binding, purified MHC/direct/fluorescence; filed as Kd, often an IC50 or EC50 that approximates it; ≥ and ≤ were set here for values at or beyond the usual limits of such assays. The note with it: source organism: Entamoeba dispar SAW760.
Setting [38] is: source organism: Yersinia pestis Nepal516.
Where [39] appears, read: source organism: Human herpesvirus 4 strain B95-8.
The mark [40] stands for this setting: source organism: Entamoeba dispar SAW760.

For the sequence ARMILMTHF, the IC50 in experiment [1] was found to be 1.1 nM.

Take FFGETSHNY: the Kd in experiment [2] (source organism: Mus musculus) is at least 20000 nM; in experiment [3], at least 20000 nM; in [4], at most 0.1 nM.

Turning to FLSHNFTLV, the IC50 in experiment [5] was found to be 0.61 nM. Further, the Kd is 0.047 nM in experiment [6], 0.0232 nM in [7], 0.445 nM in experiment [8] and 27.1 nM in experiment [9].

As to FYFNWNTPI, the dissociation constant Kd in [10] is 1060 nM; in experiment [11], 1420 nM; in experiment [12] (setting [38]), at most 0.1 nM; in [13], 0.2 nM; in experiment [14], 7.2 nM; in experiment [15] it was 23.5 nM. Further, the Kd in experiment [16] (setting [38]) was at least 5000 nM; in [17] (setting [38]) it was at least 5000 nM; in experiment [18] it was 300 nM; in experiment [19], 33.9 nM; in experiment [20] it was at most 0.1 nM.

In the case of HLIQNPNPF, the dissociation constant Kd in [21] (setting [38]) came out at 626 nM; in experiment [22] it was 6500 nM; in [23], 30.8 nM; in experiment [24], 17.3 nM; in experiment [25] it was 27.3 nM; in [26] it was 8050 nM.

As for LPFLKSLAI, the dissociation constant Kd is 12.6 nM in experiment [22]; 105 nM in experiment [27]; at least 20000 nM in [23]; 46.1 nM in experiment [25]; 841 nM in [28].

Turning to RQNLSSSEL, in experiment [29], the Kd was 192 nM.

With RRAALSGHL, the Kd in experiment [16] (setting [39]) is at least 5000 nM; in experiment [30] (setting [39]), 0.2 nM; in experiment [17] (setting [39]) it was at least 5000 nM; in experiment [31] (setting [39]) it was at least 5000 nM.

For the sequence WRLYSPPPV, the Kd in experiment [32] was found to be 118 nM.

Regarding YENAVWDQY, the Kd is 537 nM in [33] and 463 nM in experiment [2] (source organism: Mammarenavirus lassaense).

YRYCHQLAL: the Kd is 164 nM in [34]; 39 nM in experiment [21] (setting [38]); 206 nM in experiment [35]; at least 20000 nM in experiment [10]; at least 5000 nM in [16] (setting [38]); 0.2 nM in experiment [30] (setting [38]). In addition, the Kd in [36] is 1.2 nM; in [17] (setting [38]), at least 5000 nM; in experiment [31] (setting [38]), at least 5000 nM; in experiment [19], 1.8 nM.

Turning to YYSNKVFPI, the Kd is at least 20000 nM in experiment [37], 245 nM in experiment [21] (setting [40]) and at most 0.1 nM in [12] (setting [40]).

As a reminder, the IC50 is the concentration that inhibits the measured activity by half. As usually defined, the Kd is a measure of binding affinity in units of concentration.
